Drawing on publication doi:10.1101/2024.09.30.615892, this text covers binding and Kd for 7 substances.

Data set [1] concerns T1, EppR-His6 (Acinetobacter baumannii ATCC17978), ORF:cce4f89b.
T1 sequence: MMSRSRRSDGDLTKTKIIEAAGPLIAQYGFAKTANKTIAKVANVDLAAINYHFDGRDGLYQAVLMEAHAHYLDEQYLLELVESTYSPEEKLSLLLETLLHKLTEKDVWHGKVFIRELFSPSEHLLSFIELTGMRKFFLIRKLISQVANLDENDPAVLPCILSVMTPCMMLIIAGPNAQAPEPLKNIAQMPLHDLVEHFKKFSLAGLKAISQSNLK
In words: EMSA. (Mobility shift assays separate free from complexed probe on a gel.)

Data set [2] concerns EppR-His6 (Acinetobacter baumannii ATCC17978). Description: EMSA.

As to “AATAAAGTAGAGCACAGCTTAATTTCAAATTTAAAAGTTGTGGATAAACAAATTGATCTAGAAAAAATGATCAACGGATAAAGGAATATTTAATTTTTTTATGCGGGCCTCTACCGCTTATAGAACAGTTTTTAAACAATTTTACTTATAGCTTCATTCA (double strand) [umuDC0636-0637 promoter]”, the binding result in data set [1] is on record as “binds”.
“ACCATTTTGAAATCGTAACAAATTCAAGATAAATGGTAGAGTTGAGTAAAGAGAAATTCAAATTTAAAAAATTGTGGATAAACAAGTAAAAGTCAAAAATTGTCGCAGTATCTGGCGCATTTGGTCGGAAATTCTTCAGTTCTGATCTAG (double strand) [umuC2015 promoter]”: the binding result in data set [1] is given as “binds”.
Same read-out and setting: under “ACTCATATTTAAGTGTTCAGAATTTCATTGATAAAAATCAAAACAGTCAGTAATAAGAACTATTTCACAATAGGTTTTGATTCTCTTCAAATTACCATTTCCGTTTTAACATCCCTGTTAAAAGCAAAATGGATTAAAATCTGATCATGAAATTTATTGTTATGCAAAAAAAATATTTCGTCAACTTGAAAATGTAACTTTTTCAAGTTACATTGTTTGTGTAGGATTTGAACGGTGAAATGGAGGCGAT (double strand) [umuDAb (1389) promoter]” stands “binds”; under “ATGTTTCCCCTAGCTTGATTTTGTAACATATTCAAGATGATATTCTAGAGATGAGCATAAATTCAAATTTAAAAAGTTGTGGATAAACAAGGGGAAGTCAAAAACTGACGTAGCCAAAAGTGCATTTGGTCGGAATTTATGCATTGCTGTACAGTGAGGCAACCATAGCATGGGAATCAAAATATTAGCTTTGAGATTGTAAATCTTTGTGGAACTTAATGTTCCACACTATTGCTTATTTATAGCAAAT (double strand) [umuDC1174-1173 promoter]”, “binds”.
With “CTTTTTTATTCATCTTTTTGGCCTTCTTATTAAATTCAAATTTACATAGTTTAAATTCAATTTAAATTTAAATTACCTTAATCTTTGAATAAAAGATATACTTTTATGATGAAATAAAATTAGGTTTAAACATGTCC (double strand) [eppR promoter]”, the Kd in data set [1] turned out to be 123 nM.
For the substance “TATTTCATCCCCTTACTCATTAACTGAAATCTGCATTTTGAATTTGTAACATAATCAAGTTAACAAAATTACGGGCTGATATCTAGGGGAGTTTCAGTTGTTCGTCGAAATTATAGGTAGGAGATAAAATCTATGAAATGTCAGTTATTGATATGGAAATGTCTGAAAATGATAAGTTTTAATTGGTTATGATCGGAAATATAAGAGCTATATTTAATGGATGAGTTGAGTCTTTTAAATGTAGTAATGC (double strand) [umuC2008 promoter]”, the binding result in data set [1] is reported as “binds”.
Substance eppR promoter had a dissociation constant Kd in data set [2] of 123 nM. This counts as sub-micromolar.

The Kd is the equilibrium constant for the complex coming apart.
